Reference: article PMC9352680, “A comprehensive thermodynamic model for RNA binding by the Saccharomyces cerevisiae Pumilio protein PUF4”

Biological target: T1, PUF4 RNA-binding domain (Saccharomyces cerevisiae, UniProt P25339 537-888)
T1 sequence: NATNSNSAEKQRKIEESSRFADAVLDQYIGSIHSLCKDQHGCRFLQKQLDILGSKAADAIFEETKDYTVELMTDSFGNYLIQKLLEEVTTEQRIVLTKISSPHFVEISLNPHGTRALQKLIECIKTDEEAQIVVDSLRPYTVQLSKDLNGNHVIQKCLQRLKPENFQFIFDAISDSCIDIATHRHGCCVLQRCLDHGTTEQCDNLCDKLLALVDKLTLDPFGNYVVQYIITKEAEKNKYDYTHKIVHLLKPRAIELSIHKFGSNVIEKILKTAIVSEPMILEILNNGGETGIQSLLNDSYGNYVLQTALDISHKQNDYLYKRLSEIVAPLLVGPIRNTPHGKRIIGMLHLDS
Experiment: Mg; RNA-MaP; 20 mM Na-HEPES pH 7.4, 30 mM KOAc, 0.75 mM MgCl2, 0.1% Tween-20, 5% glycerol, 0.1 mg/mL BSA, 2 mM DTT; 25 C; 0.0125-409.6 nM protein
Details: tags: N-His6-TEV cleaved; C-SNAP kept, Cy3B-labelled; label: tethered on chip by stalled RNA polymerase

Binder: UCUCUUUGUAAACUGGUCUCUU (ssRNA) [Ic_S1_P5E.1_K5.1_C5.1_H5.1_A5.1_[T5A]_[T6A]_[A7C]_F5.1_[T9G]_[A10G]_T5.1]
- Kd: 16.9 nM

Binder: UCUCUUUGUAACCUAGUCUCUU (ssRNA) [Ic_S1_P5E.1_K5.1_C5.1_H5.1_A5.1_[T5A]_[T6C]_[A7C]_F5.1_[T9A]_[A10G]_T5.1]
- Kd: 4.64 nM

Binder: UCUCUUUGUAACUAGUUCUCUU (ssRNA) [Ic_S1_P5E.1_K5.1_C5.1_H5.1_A5.1_[T5A]_[T6C]_[A7T]_F5.1_[T8A]_[T9G]_[A10T]_T5.1]
- Kd: 642 nM

Binder: UCUCUUUGUACGUUGUUCUCUU (ssRNA) [Ic_S1_P5E.1_K5.1_C5.1_H5.1_A5.1_[T5C]_[T6G]_[A7T]_F5.1_[T9G]_[A10T]_T5.1]
- Kd: 34.8 nM

Binder: UCUCUUUGUAAUCGACUCUCUU (ssRNA) [Ic_S1_P5E.1_K5.1_C5.1_H5.1_A5.1_[T5A]_[A7C]_F5.1_[T8G]_[T9A]_[A10C]_T5.1]
- Kd: 1540 nM

Binder: UCUCUUUGUAAGUACGUCUCUU (ssRNA) [Ic_S1_P5E.1_K5.1_C5.1_H5.1_A5.1_[T5A]_[T6G]_[A7T]_F5.1_[T8A]_[T9C]_[A10G]_T5.1]
- Kd: 2240 nM

Binder: UCUCUUUGUAUGUCCAUCUCUU (ssRNA) [Ic_S1_P5E.1_K5.1_C5.1_H5.1_A5.1_[T6G]_[A7T]_F5.1_[T8C]_[T9C]_T5.1]
- Kd: 363 nM

Binder: UCUCUUUGUAUUGUCUUCUCUU (ssRNA) [Ic_S1_P5E.1_K5.1_C5.1_H5.1_A5.1_[A7G]_F5.1_[T9C]_[A10T]_T5.1]
- Kd: 101 nM

Binder: UCUCUUUGUAGUUCCUUCUCUU (ssRNA) [Ic_S1_P5E.1_K5.1_C5.1_H5.1_A5.1_[T5G]_[A7T]_F5.1_[T8C]_[T9C]_[A10T]_T5.1]
- Kd: 1760 nM

Binder: UCUCUUUGUACAGCCCUCUCUU (ssRNA) [Ic_S1_P5E.1_K5.1_C5.1_H5.1_A5.1_[T5C]_[T6A]_[A7G]_F5.1_[T8C]_[T9C]_[A10C]_T5.1]
- Kd: 142 nM

Binder: UCUCUUUGUAUCUCUCUCUU (ssRNA) [Ic_S1_P3E.1_K3.1_C3.1_H3.1_A3.1_[A6C]_F3.1_[A8C]_T3.1]
- Kd: 97.4 nM

Binder: UCUCUUUGUAGCCUAUUCUCUU (ssRNA) [Ic_S1_P5E.1_K5.1_C5.1_H5.1_A5.1_[T5G]_[T6C]_[A7C]_F5.1_[T9A]_[A10T]_T5.1]
- Kd: 17.1 nM

Binder: UCUCUUUGUAUGCCGGUCUCUU (ssRNA) [Ic_S1_P5E.1_K5.1_C5.1_H5.1_A5.1_[T6G]_[A7C]_F5.1_[T8C]_[T9G]_[A10G]_T5.1]
- Kd: > 2300 nM

Binder: UCUCUUUGUACAUGUAUCUCUU (ssRNA) [Ic_S1_P5E.1_K5.1_C5.1_H5.1_A5.1_[T5C]_[T6A]_[A7T]_F5.1_[T8G]_T5.1]
- Kd: 8.91 nM

Binder: UCUCUUUGUAUUUUCGUCUCUU (ssRNA) [Ic_S1_P5E.1_K5.1_C5.1_H5.1_A5.1_[A7T]_F5.1_[T9C]_[A10G]_T5.1]
- Kd: 37.6 nM

Binder: UCUCUUUGUACAUGUUUCUCUU (ssRNA) [Ic_S1_P5E.1_K5.1_C5.1_H5.1_A5.1_[T5C]_[T6A]_[A7T]_F5.1_[T8G]_[A10T]_T5.1]
- Kd: 27.2 nM

Binder: UCUCUUUGUAACUGACUCUCUU (ssRNA) [Ic_S1_P5E.1_K5.1_C5.1_H5.1_A5.1_[T5A]_[T6C]_[A7T]_F5.1_[T8G]_[T9A]_[A10C]_T5.1]
- Kd: 448 nM

Binder: UCUCUUUGUACCUCGAUCUCUU (ssRNA) [Ic_S1_P5E.1_K5.1_C5.1_H5.1_A5.1_[T5C]_[T6C]_[A7T]_F5.1_[T8C]_[T9G]_T5.1]
- Kd: 660 nM

Binder: UCUCUUUGUAGCAACCUCUCUU (ssRNA) [Ic_S1_P5E.1_K5.1_C5.1_H5.1_A5.1_[T5G]_[T6C]_F5.1_[T8A]_[T9C]_[A10C]_T5.1]
- Kd: 1850 nM

Binder: UCUCUUUGUAAACACUUCUCUU (ssRNA) [Ic_S1_P5E.1_K5.1_C5.1_H5.1_A5.1_[T5A]_[T6A]_[A7C]_F5.1_[T8A]_[T9C]_[A10T]_T5.1]
- Kd: 666 nM

Binder: UCUCUUUGUAAUUUAGUCUCUU (ssRNA) [Ic_S1_P5E.1_K5.1_C5.1_H5.1_A5.1_[T5A]_[A7T]_F5.1_[T9A]_[A10G]_T5.1]
- Kd: 3.08 nM

Binder: UCUCUUUGUAAGCUUUUCUCUU (ssRNA) [Ic_S1_P5E.1_K5.1_C5.1_H5.1_A5.1_[T5A]_[T6G]_[A7C]_F5.1_[A10T]_T5.1]
- Kd: 643 nM

Binder: UCUCUUUGUAUGUUUCUCUU (ssRNA) [Ic_S1_P3E.1_K3.1_C3.1_H3.1_A3.1_[A6G]_F3.1_[A8T]_T3.1]
- Kd: 49.3 nM

Binder: UCUCUUUGUAGCCCUAUCUCUU (ssRNA) [Ic_S1_P5E.1_K5.1_C5.1_H5.1_A5.1_[T5G]_[T6C]_[A7C]_F5.1_[T8C]_T5.1]
- Kd: 113 nM

Binder: UCUCUUUGUAUGUCCUUCUCUU (ssRNA) [Ic_S1_P5E.1_K5.1_C5.1_H5.1_A5.1_[T6G]_[A7T]_F5.1_[T8C]_[T9C]_[A10T]_T5.1]
- Kd: 88.1 nM

Binder: UCUCUUUGUAAAAACCUCUCUU (ssRNA) [Ic_S1_P5E.1_K5.1_C5.1_H5.1_A5.1_[T5A]_[T6A]_F5.1_[T8A]_[T9C]_[A10C]_T5.1]
- Kd: 1140 nM

Binder: UCUCUUUGUAGCUUUUUCUCUU (ssRNA) [Ic_S1_P5E.1_K5.1_C5.1_H5.1_A5.1_[T5G]_[T6C]_[A7T]_F5.1_[A10T]_T5.1]
- Kd: 516 nM

Binder: UCUCUUUGUACCUUUAUCUCUU (ssRNA) [Ic_S1_P5E.1_K5.1_C5.1_H5.1_A5.1_[T5C]_[T6C]_[A7T]_F5.1_T5.1]
- Kd: 6.83 nM

Binder: UCUCUUUGUAACCUAUUCUCUU (ssRNA) [Ic_S1_P5E.1_K5.1_C5.1_H5.1_A5.1_[T5A]_[T6C]_[A7C]_F5.1_[T9A]_[A10T]_T5.1]
- Kd: 12.8 nM

Binder: UCUCUUUGUAGCCUACUCUCUU (ssRNA) [Ic_S1_P5E.1_K5.1_C5.1_H5.1_A5.1_[T5G]_[T6C]_[A7C]_F5.1_[T9A]_[A10C]_T5.1]
- Kd: 48.9 nM

Binder: UCUCUUUGUACACACGUCUCUU (ssRNA) [Ic_S1_P5E.1_K5.1_C5.1_H5.1_A5.1_[T5C]_[T6A]_[A7C]_F5.1_[T8A]_[T9C]_[A10G]_T5.1]
- Kd: 122 nM

Binder: UCUCUUUGUACUGGCUUCUCUU (ssRNA) [Ic_S1_P5E.1_K5.1_C5.1_H5.1_A5.1_[T5C]_[A7G]_F5.1_[T8G]_[T9C]_[A10T]_T5.1]
- Kd: 991 nM
